One experiment has as its target cMet-Fc fusion protein (Homo sapiens, UniProt P08581). In words: Protein phage ELISA: peptide-displaying phage binding to soluble cMet-Fc versus TRAIL-Fc. As to conditions: phage isolate; cMet-Fc vs. TRAIL-Fc. A digest of the protocol:
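Phage displaying selected peptides were incubated 2 h at room temperature on wells coated with 0.5 μg/mL cMet-Fc, with TRAIL-Fc coating as the unrelated-Fc specificity control.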
Background: In an ELISA, binding on a coated surface is turned into a signal by an enzyme label.

Experiment [1] addresses T1, 3T3 cells that over-express human cMet (Homo sapiens, UniProt P08581).
T1 construct: expressed in transfected cells; host or cells: 3T3 cells
In words: Whole cell ELISA of peptide-displaying phage. The experiment is classed as cell-based. The settings on record: phage isolate; 3T3 cells expressing human cMet vs. non-expressing 3T3 cells. A digest of the protocol: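 Phage displaying peptides, pre-blocked 1 h at 37 °C, incubated 1 h at RT on glutaraldehyde-fixed (0.1%, 12 min, 37 °C) cMet-overexpressing 3T3 cells (10^5 per well). Binding read out by HRP anti-M13 antibody after PBST washing.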

T1 sequence (P08581 25-1390): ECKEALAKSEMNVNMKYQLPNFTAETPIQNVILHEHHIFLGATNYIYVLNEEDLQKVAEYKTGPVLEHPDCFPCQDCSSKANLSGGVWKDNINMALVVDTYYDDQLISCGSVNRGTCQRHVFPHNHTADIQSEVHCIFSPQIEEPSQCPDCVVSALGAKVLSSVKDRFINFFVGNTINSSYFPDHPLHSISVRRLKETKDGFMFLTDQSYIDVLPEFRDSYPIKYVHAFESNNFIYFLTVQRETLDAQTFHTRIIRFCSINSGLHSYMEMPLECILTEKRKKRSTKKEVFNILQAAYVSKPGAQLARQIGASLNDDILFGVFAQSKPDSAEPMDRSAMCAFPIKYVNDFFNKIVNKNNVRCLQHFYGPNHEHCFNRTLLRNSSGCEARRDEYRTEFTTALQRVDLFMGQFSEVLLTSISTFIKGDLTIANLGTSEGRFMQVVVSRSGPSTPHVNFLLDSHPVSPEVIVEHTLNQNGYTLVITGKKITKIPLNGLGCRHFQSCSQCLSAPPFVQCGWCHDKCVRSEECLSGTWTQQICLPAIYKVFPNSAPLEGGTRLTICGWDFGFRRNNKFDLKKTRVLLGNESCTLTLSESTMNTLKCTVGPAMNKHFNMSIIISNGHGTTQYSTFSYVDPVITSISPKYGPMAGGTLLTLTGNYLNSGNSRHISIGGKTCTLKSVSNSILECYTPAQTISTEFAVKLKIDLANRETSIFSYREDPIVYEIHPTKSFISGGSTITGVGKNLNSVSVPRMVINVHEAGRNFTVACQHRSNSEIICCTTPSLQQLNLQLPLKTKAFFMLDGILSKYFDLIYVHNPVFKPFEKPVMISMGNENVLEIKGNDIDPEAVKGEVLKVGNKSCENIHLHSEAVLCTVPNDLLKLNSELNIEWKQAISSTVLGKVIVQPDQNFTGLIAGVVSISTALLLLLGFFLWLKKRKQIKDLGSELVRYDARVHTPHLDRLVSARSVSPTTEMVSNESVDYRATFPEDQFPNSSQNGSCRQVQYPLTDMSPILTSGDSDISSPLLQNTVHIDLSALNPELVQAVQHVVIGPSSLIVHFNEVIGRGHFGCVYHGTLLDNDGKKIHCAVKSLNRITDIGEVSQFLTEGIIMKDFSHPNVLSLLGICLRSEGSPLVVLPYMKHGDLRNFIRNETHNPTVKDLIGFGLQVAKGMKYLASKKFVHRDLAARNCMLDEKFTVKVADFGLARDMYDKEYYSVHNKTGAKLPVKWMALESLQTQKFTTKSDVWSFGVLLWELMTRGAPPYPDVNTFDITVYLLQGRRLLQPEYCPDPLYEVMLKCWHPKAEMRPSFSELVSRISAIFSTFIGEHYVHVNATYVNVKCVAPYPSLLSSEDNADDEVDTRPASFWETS
cMet-Fc fusion protein, sequence (P08581 25-307 limits assumed): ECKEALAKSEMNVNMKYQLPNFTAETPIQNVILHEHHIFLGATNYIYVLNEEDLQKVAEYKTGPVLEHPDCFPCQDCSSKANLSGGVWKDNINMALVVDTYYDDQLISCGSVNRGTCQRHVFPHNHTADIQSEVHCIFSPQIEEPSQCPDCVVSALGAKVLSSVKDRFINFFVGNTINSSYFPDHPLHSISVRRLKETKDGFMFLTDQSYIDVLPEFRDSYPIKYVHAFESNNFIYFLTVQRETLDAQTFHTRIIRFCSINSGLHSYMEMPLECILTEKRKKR
cMet-Fc fusion protein, sequence (P08581 with tags, fused parts or gaps limits assumed): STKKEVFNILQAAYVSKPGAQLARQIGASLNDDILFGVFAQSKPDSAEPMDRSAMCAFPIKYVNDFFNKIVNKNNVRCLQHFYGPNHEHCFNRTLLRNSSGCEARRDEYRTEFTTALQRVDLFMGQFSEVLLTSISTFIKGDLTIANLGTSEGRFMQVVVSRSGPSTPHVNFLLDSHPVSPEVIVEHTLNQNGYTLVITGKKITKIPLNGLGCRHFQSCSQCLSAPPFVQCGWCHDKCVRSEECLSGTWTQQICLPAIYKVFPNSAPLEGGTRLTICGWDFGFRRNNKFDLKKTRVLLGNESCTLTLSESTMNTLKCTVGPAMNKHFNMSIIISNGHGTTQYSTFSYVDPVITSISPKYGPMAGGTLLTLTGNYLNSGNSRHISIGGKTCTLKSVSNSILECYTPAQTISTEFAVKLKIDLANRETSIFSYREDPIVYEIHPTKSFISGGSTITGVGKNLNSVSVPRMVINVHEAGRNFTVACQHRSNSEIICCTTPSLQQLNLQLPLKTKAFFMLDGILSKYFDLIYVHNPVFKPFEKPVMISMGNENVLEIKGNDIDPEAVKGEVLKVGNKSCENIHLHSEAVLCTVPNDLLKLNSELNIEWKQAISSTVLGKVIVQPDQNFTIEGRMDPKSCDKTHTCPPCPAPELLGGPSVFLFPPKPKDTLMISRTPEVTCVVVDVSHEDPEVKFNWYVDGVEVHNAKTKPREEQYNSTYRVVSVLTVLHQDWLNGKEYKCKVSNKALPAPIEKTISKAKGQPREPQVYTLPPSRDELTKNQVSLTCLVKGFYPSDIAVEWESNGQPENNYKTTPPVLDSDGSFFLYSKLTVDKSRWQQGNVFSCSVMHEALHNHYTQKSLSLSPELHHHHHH

For the compound “AQHVVTLTLIQMPFAFNFEPRM (Synthetically generated cMet-binding peptide sequence) [SEQ ID NO: 484]”, in the experiment with cMet-Fc fusion protein, the “Protein ELISA” value is on record as 3.1 fold over background. For the same compound, the “WC ELISA” value in experiment [1] was found to be 1.30 fold over background.

As for “AGHFECPKHQYMCDMPGT (Synthetically generated cMet-binding peptide sequence) [SEQ ID NO: 042]”, the “Protein ELISA” value with cMet-Fc fusion protein came out at 3.1 fold over background. For the same compound, in experiment [1], the “WC ELISA” value is 1.23 fold over background.

Consider “GDPDECQLNRETFEVWCPWHDP (Synthetically generated cMet-binding peptide sequence) [SEQ ID NO: 401]”, for which the “Protein ELISA” value with cMet-Fc fusion protein turned out to be 4.3 fold over background. For the same compound, the “WC ELISA” value in experiment [1] was found to be 1.23 fold over background.

Consider `CC(=O)N[C@@H](C)C(=O)NCC(=O)N[C@@H](CO)C(=O)N[C@@H](Cc1c[nH]c2ccccc12)C(=O)N[C@@H](Cc1c[nH]cn1)C(=O)N[C@H]1CSSC[C@@H](C(=O)N[C@@H](Cc2c[nH]c3ccccc23)C(=O)N[C@@H](CCC(=O)O)C(=O)N[C@@H](Cc2ccccc2)C(=O)NCC(=O)N[C@H](C(=O)NCC(=O)NCC(=O)NCC(=O)N[C@@H](CCCCNC(=O)c2ccc3c(c2)C(=O)OC32c3ccc(O)cc3Oc3cc(O)ccc32)C(N)=O)[C@@H](C)O)NC(=O)[C@H](CCC(=O)O)NC(=O)[C@H](Cc2ccccc2)NC(=O)[C@H](CO)NC(=O)[C@@H]2CCCN2C(=O)[C@@H]2CCCN2C(=O)CNC(=O)[C@H](C)NC1=O` [SEQ ID NO: 055], for which the “Protein ELISA” value at cMet-Fc fusion protein worked out at 18.3 fold over background. Further, the “WC ELISA” value in experiment [1] was found to be 1.47 fold over background.

Take “GSGDPCSPGPSINGHCSVMAP (Synthetically generated cMet-binding peptide sequence) [SEQ ID NO: 382]”: the “Protein ELISA” value with cMet-Fc fusion protein amounted to 4.5 fold over background. Also, in experiment [1], the “WC ELISA” value is recorded as 1.33 fold over background.

For “AQDNTADQMFNGFHVLAMYMV (Synthetically generated cMet-binding peptide sequence) [SEQ ID NO: 481]”, in the experiment with cMet-Fc fusion protein, the “Protein ELISA” value amounted to 3.3 fold over background. Also, the “WC ELISA” value in experiment [1] is recorded as 1.37 fold over background.

For the compound “AGSTDCRGHPTFECWGWGT (Synthetically generated cMet-binding peptide sequence) [SEQ ID NO: 086]”, the “Protein ELISA” value in the experiment with cMet-Fc fusion protein is on record as 5.2 fold over background. The “WC ELISA” value in experiment [1] amounted to 1.30 fold over background.

Consider `CC[C@H](C)[C@H](NC(=O)[C@@H](NC(=O)[C@H](CCC(=O)O)NC(=O)[C@H](Cc1c[nH]cn1)NC(=O)[C@@H](NC(=O)[C@H](C)NC(=O)[C@@H]1CCCN1C(=O)[C@H](CC(N)=O)NC(=O)[C@H](Cc1ccccc1)NC(=O)[C@H](CCCCN)NC(=O)[C@H](Cc1ccccc1)NC(=O)[C@H](Cc1c[nH]cn1)NC(=O)[C@@H](NC(=O)[C@@H](NC(=O)[C@H](C)NC(=O)[C@H](CCSC)NC(=O)[C@H](CC(=O)O)NC(=O)[C@H](CCC(=O)O)NC(=O)[C@@H](NC(=O)[C@H](CCC(N)=O)NC(=O)[C@H](C)NC(C)=O)C(C)C)[C@@H](C)O)C(C)C)[C@@H](C)O)C(C)C)C(=O)N[C@@H](Cc1c[nH]c2ccccc12)C(=O)NCC(=O)NCC(=O)NCC(=O)N[C@@H](CCCCNC(=O)c1ccc2c(c1)C(=O)OC21c2ccc(O)cc2Oc2cc(O)ccc21)C(N)=O` [SEQ ID NO: 492], for which the “Protein ELISA” value on cMet-Fc fusion protein is recorded as 3.2 fold over background. Moreover, the “WC ELISA” value in experiment [1] is listed as 1.53 fold over background.
